In patent publication US20260226131A1 (SHANGHAI INSTITUTE OF MATERIA MEDICA CHINESE ACADEMY OF …, published 2026):
Where a chain is given by its changes, count along the chain named. Names may count otherwise.

Columns and labels:
[1] = molecular target: IGF-1R-His tag (Sino Biological), human insulin-like growth factor 1 receptor (human) (UniProt P08069); assay: BLI (Octet), IGF-1R-His captured on Ni-NTA probe, 1:1 fit
[2] = molecular target: T1, human insulin receptor extracellular domain protein (hIRB-ECD, Sino Biological Inc.) (human, UniProt P06213 28-956); assay: ELISA, coated hIRB-ECD, anti-human IgG HRP detection
T1 construct: extracellular domain; Bought protein coated on the ELISA plate

[3] = molecular target: T2, IGF-1R-His tag (Sino Biological), human insulin-like growth factor 1 receptor (human, UniProt P08069 31-932, limits assumed); assay: BLI (Octet), IGF-1R-His captured on Ni-NTA probe, 1:1 fit
T2 construct: Bought recombinant protein captured on Ni-NTA probes; also called His-tagged IGF-1R protein; not shown: His tag

[4] = molecular target: T3, human insulin receptor isoform A (hIRA), membranes of CHO cells overexpressing hIRA (human, UniProt P06213-2 28-1370); assay: competition with [125I]-insulin, CHO-hIRA membranes (SPA)
T3 construct: whole, on cells; The assay used cell membrane preparations

[5] = molecular target: T4, human insulin receptor isoform B (hIRB), membranes of CHO cells overexpressing hIRB (human, UniProt P06213 28-1382); assay: competition with [125I]-insulin, CHO-hIRB membranes (SPA)
T4 construct: whole, on cells; The assay used cell membrane preparations

Molecule: glargine insulin (Lantus, Sanofi) (ligand)
- Kd [1]: 764 nM
- koff [1]: 0.0192 s⁻¹
- kon [1]: 25100 M⁻¹ s⁻¹

B1: Insulin-Fc fusion protein of Example 8 (des B27-30+A3-A+A21G) (Fc fusion)
chain: FVNQHLCGSHLVEALYLVCGERGFFYGGVGGGGIAEQCCTSICSLYQLENYCGGGGGSGGGGSGGGGSGGGGSERKSSVESPPSPAPPVAGPSVFLFPPKPKDTLMISRTPEVTCVVVDVSQEDPEVQFNWYVDGVEVHNAKTKPREEQFNSTFRVVSVLTVLHQDWLNGKEYKCKVSNKGLPSSIEKTISKTKGQPREPQVYTLPPSREEMTKNQVSLTCLVKGFYPSDIAVEWESNGQPENNYKTTPPMLDSDGSFFLYSKLTVDKSRWQQGNVFSCSVMHEALHNHYTQKSLSLSLG
- EC50 [2]: 314 nM

B2: Insulin-Fc fusion protein of Example 1 (B27E+A3-A+A21G) (Fc fusion)
chain: FVNQHLCGSHLVEALYLVCGERGFFYEPKTGGVGGGGIAEQCCTSICSLYQLENYCGGGGGSGGGGSGGGGSGGGGSERKSSVESPPSPAPPVAGPSVFLFPPKPKDTLMISRTPEVTCVVVDVSQEDPEVQFNWYVDGVEVHNAKTKPREEQFNSTFRVVSVLTVLHQDWLNGKEYKCKVSNKGLPSSIEKTISKTKGQPREPQVYTLPPSREEMTKNQVSLTCLVKGFYPSDIAVEWESNGQPENNYKTTPPMLDSDGSFFLYSKLTVDKSRWQQGNVFSCSVMHEALHNHYTQKSLSLSLG
- EC50 [2]: 160 nM
- Kd [3]: 6.49 µM
- koff [3]: 0.00336 s⁻¹
- kon [3]: 518 M⁻¹ s⁻¹
- IC50 [4]: 102 nM
- Maximum Receptor Binding Activity (%) Relative to RHI [4]: 78.7%
- IC50 [5]: 509 nM
- Maximum Receptor Binding Activity (%) Relative to RHI [5]: 74.3%

B3: Insulin-Fc fusion protein of Example 6 (B16-A+A3-A+A21G) (Fc fusion)
chain: B2 chain with Y16A, E27T
- EC50 [2]: 445 nM

B4: Insulin-Fc fusion protein of Example 5 (B5-A+A21G) (Fc fusion)
chain: B2 chain with H5A, E27T, A39V
- EC50 [2]: 160 nM

B5: Insulin-Fc fusion protein of Example 7 (B25-T+B27-E A3-A+A21G) (Fc fusion)
chain: B2 chain with F25T
- EC50 [2]: 699 nM
